For this assay, the target named is T1, purified recombinant mouse PKCζ (mouse, UniProt Q02956 1-592).
T1 sequence (looked up): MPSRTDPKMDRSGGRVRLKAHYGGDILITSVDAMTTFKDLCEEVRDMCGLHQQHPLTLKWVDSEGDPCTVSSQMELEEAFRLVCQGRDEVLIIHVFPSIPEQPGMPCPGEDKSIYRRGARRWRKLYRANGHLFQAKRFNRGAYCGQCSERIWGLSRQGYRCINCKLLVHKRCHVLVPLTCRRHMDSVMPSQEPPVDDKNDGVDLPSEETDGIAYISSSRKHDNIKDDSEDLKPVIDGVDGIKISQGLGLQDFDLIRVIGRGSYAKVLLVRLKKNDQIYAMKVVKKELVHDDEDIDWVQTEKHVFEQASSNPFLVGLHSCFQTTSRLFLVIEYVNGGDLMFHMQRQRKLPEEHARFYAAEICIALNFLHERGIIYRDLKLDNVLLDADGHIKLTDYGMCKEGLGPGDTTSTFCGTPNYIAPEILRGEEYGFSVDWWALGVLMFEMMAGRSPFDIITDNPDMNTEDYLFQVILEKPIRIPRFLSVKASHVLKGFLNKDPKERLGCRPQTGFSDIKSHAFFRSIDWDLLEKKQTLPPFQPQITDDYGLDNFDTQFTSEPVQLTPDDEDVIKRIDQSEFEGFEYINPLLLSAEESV
Put plainly: far-Western, overlay or dot blot.

The text below walks through data of paper PMC2132825 (The Journal of Cell Biology, 1998).

B1: GST-ASIP 712/936 (domain or fragment, rat, UniProt Q9Z340 712-936, looked up)
chain: RRISHSLYSGIEGLDESPTRNAALSRIMGESGKCQLSPTVNMPHDDTVMIEDDRLPVLPPHLSDQSSSSSHDDVGFIMTEAGTWAKATISDSADCSLSPDVDPVLAFQREGFGRQSMSEKRTKQFSNASQLDFVKTRKSKSMDLGIADETKLNTVDDQRAGSPNRDVGPSLGLKKSSSLESLQTAVAEVTLNGNIPFHRPRPRIIRGRGCNESFRAAIDKSYDKP
For B1, the binding result is listed as “binds”.
